Reference: patent US20180155451A1 (published 2018)

B1: GpH7-A5/GpH7-B3 variant S298_15Y/GpL16-k0 (antibody, human IgG1, kappa)
heavy 1: not shown
heavy 2: not shown
light: DIVMTQSPLSLPVTPGEPASISCQASESLVHSNRNTYLHWYLQKPGQSPQLLIYKVSNRFSGVPDRFSGSGSGTDFTLKISRVEAEDVGVYYCSQNTHVPPTFGQGTKVEIERTVAAPSVFIFPPSDEQLKSGTASVVCLLNNFYPREAKVQWKVDNALQSGNSQESVTEQDSKDSTYSLSSTLTLSKADYEKHKVYACEVTHQGLSSPVTKSFNRGEC
notes: mutation in one H chain only; also called He Ab S298_15Y; S298Y
B2: GpH7-A5/GpH7-B3 variant S324_14T/GpL16-k0 (antibody, human IgG1, kappa)
heavy 1: not shown
heavy 2: not shown
light: DIVMTQSPLSLPVTPGEPASISCQASESLVHSNRNTYLHWYLQKPGQSPQLLIYKVSNRFSGVPDRFSGSGSGTDFTLKISRVEAEDVGVYYCSQNTHVPPTFGQGTKVEIERTVAAPSVFIFPPSDEQLKSGTASVVCLLNNFYPREAKVQWKVDNALQSGNSQESVTEQDSKDSTYSLSSTLTLSKADYEKHKVYACEVTHQGLSSPVTKSFNRGEC
notes: mutation in one H chain only; also called He Ab S324_14T; S324T
B3: GpH7-A5/GpH7-B3 variant S324_03V/GpL16-k0 (antibody, human IgG1, kappa)
heavy 1: not shown
heavy 2: not shown
light: DIVMTQSPLSLPVTPGEPASISCQASESLVHSNRNTYLHWYLQKPGQSPQLLIYKVSNRFSGVPDRFSGSGSGTDFTLKISRVEAEDVGVYYCSQNTHVPPTFGQGTKVEIERTVAAPSVFIFPPSDEQLKSGTASVVCLLNNFYPREAKVQWKVDNALQSGNSQESVTEQDSKDSTYSLSSTLTLSKADYEKHKVYACEVTHQGLSSPVTKSFNRGEC
notes: mutation in one H chain only; also called He Ab S324_03V; S324V
B4: GpH7-A5/GpH7-B3 variant S324_11K/GpL16-k0 (antibody, human IgG1, kappa)
heavy 1: not shown
heavy 2: not shown
light: DIVMTQSPLSLPVTPGEPASISCQASESLVHSNRNTYLHWYLQKPGQSPQLLIYKVSNRFSGVPDRFSGSGSGTDFTLKISRVEAEDVGVYYCSQNTHVPPTFGQGTKVEIERTVAAPSVFIFPPSDEQLKSGTASVVCLLNNFYPREAKVQWKVDNALQSGNSQESVTEQDSKDSTYSLSSTLTLSKADYEKHKVYACEVTHQGLSSPVTKSFNRGEC
notes: mutation in one H chain only; also called He Ab S324_11K; S324K
B5: GpH7-A5/GpH7-B3 variant S324_12R/GpL16-k0 (antibody, human IgG1, kappa)
heavy 1: not shown
heavy 2: not shown
light: DIVMTQSPLSLPVTPGEPASISCQASESLVHSNRNTYLHWYLQKPGQSPQLLIYKVSNRFSGVPDRFSGSGSGTDFTLKISRVEAEDVGVYYCSQNTHVPPTFGQGTKVEIERTVAAPSVFIFPPSDEQLKSGTASVVCLLNNFYPREAKVQWKVDNALQSGNSQESVTEQDSKDSTYSLSSTLTLSKADYEKHKVYACEVTHQGLSSPVTKSFNRGEC
notes: mutation in one H chain only; also called He Ab S324_12R; S324R
B6: GpH7-A5/GpH7-B3 variant S324_20W/GpL16-k0 (antibody, human IgG1, kappa)
heavy 1: not shown
heavy 2: not shown
light: DIVMTQSPLSLPVTPGEPASISCQASESLVHSNRNTYLHWYLQKPGQSPQLLIYKVSNRFSGVPDRFSGSGSGTDFTLKISRVEAEDVGVYYCSQNTHVPPTFGQGTKVEIERTVAAPSVFIFPPSDEQLKSGTASVVCLLNNFYPREAKVQWKVDNALQSGNSQESVTEQDSKDSTYSLSSTLTLSKADYEKHKVYACEVTHQGLSSPVTKSFNRGEC
notes: mutation in one H chain only; also called He Ab S324_20W; S324W
B7: GpH7-A5/GpH7-B3 variant S324_08L/GpL16-k0 (antibody, human IgG1, kappa)
heavy 1: not shown
heavy 2: not shown
light: DIVMTQSPLSLPVTPGEPASISCQASESLVHSNRNTYLHWYLQKPGQSPQLLIYKVSNRFSGVPDRFSGSGSGTDFTLKISRVEAEDVGVYYCSQNTHVPPTFGQGTKVEIERTVAAPSVFIFPPSDEQLKSGTASVVCLLNNFYPREAKVQWKVDNALQSGNSQESVTEQDSKDSTYSLSSTLTLSKADYEKHKVYACEVTHQGLSSPVTKSFNRGEC
notes: mutation in one H chain only; also called He Ab S324_08L; S324L
B8: GpH7-A5/GpH7-B3 variant S324_15Y/GpL16-k0 (antibody, human IgG1, kappa)
heavy 1: not shown
heavy 2: not shown
light: DIVMTQSPLSLPVTPGEPASISCQASESLVHSNRNTYLHWYLQKPGQSPQLLIYKVSNRFSGVPDRFSGSGSGTDFTLKISRVEAEDVGVYYCSQNTHVPPTFGQGTKVEIERTVAAPSVFIFPPSDEQLKSGTASVVCLLNNFYPREAKVQWKVDNALQSGNSQESVTEQDSKDSTYSLSSTLTLSKADYEKHKVYACEVTHQGLSSPVTKSFNRGEC
notes: mutation in one H chain only; also called He Ab S324_15Y; S324Y
B9: GpH7-A5/GpH7-B3 variant S298_19Q/GpL16-k0 (antibody, human IgG1, kappa)
heavy 1: not shown
heavy 2: not shown
light: DIVMTQSPLSLPVTPGEPASISCQASESLVHSNRNTYLHWYLQKPGQSPQLLIYKVSNRFSGVPDRFSGSGSGTDFTLKISRVEAEDVGVYYCSQNTHVPPTFGQGTKVEIERTVAAPSVFIFPPSDEQLKSGTASVVCLLNNFYPREAKVQWKVDNALQSGNSQESVTEQDSKDSTYSLSSTLTLSKADYEKHKVYACEVTHQGLSSPVTKSFNRGEC
notes: mutation in one H chain only; also called He Ab S298_19Q; S298Q
B10: GpH7-A5/GpH7-B3 variant S298_18N/GpL16-k0 (antibody, human IgG1, kappa)
heavy 1: not shown
heavy 2: not shown
light: DIVMTQSPLSLPVTPGEPASISCQASESLVHSNRNTYLHWYLQKPGQSPQLLIYKVSNRFSGVPDRFSGSGSGTDFTLKISRVEAEDVGVYYCSQNTHVPPTFGQGTKVEIERTVAAPSVFIFPPSDEQLKSGTASVVCLLNNFYPREAKVQWKVDNALQSGNSQESVTEQDSKDSTYSLSSTLTLSKADYEKHKVYACEVTHQGLSSPVTKSFNRGEC
notes: mutation in one H chain only; also called He Ab S298_18N; S298N
B11: GpH7-A5/GpH7-B3 variant S324_18N/GpL16-k0 (antibody, human IgG1, kappa)
heavy 1: not shown
heavy 2: not shown
light: DIVMTQSPLSLPVTPGEPASISCQASESLVHSNRNTYLHWYLQKPGQSPQLLIYKVSNRFSGVPDRFSGSGSGTDFTLKISRVEAEDVGVYYCSQNTHVPPTFGQGTKVEIERTVAAPSVFIFPPSDEQLKSGTASVVCLLNNFYPREAKVQWKVDNALQSGNSQESVTEQDSKDSTYSLSSTLTLSKADYEKHKVYACEVTHQGLSSPVTKSFNRGEC
notes: mutation in one H chain only; also called He Ab S324_18N; S324N
B12: GpH7-A5/GpH7-B3 variant S324_16H/GpL16-k0 (antibody, human IgG1, kappa)
heavy 1: not shown
heavy 2: not shown
light: DIVMTQSPLSLPVTPGEPASISCQASESLVHSNRNTYLHWYLQKPGQSPQLLIYKVSNRFSGVPDRFSGSGSGTDFTLKISRVEAEDVGVYYCSQNTHVPPTFGQGTKVEIERTVAAPSVFIFPPSDEQLKSGTASVVCLLNNFYPREAKVQWKVDNALQSGNSQESVTEQDSKDSTYSLSSTLTLSKADYEKHKVYACEVTHQGLSSPVTKSFNRGEC
notes: mutation in one H chain only; also called He Ab S324_16H; S324H
B13: GpH7-A5/GpH7-B3 variant S298_20W/GpL16-k0 (antibody, human IgG1, kappa)
heavy 1: not shown
heavy 2: not shown
light: DIVMTQSPLSLPVTPGEPASISCQASESLVHSNRNTYLHWYLQKPGQSPQLLIYKVSNRFSGVPDRFSGSGSGTDFTLKISRVEAEDVGVYYCSQNTHVPPTFGQGTKVEIERTVAAPSVFIFPPSDEQLKSGTASVVCLLNNFYPREAKVQWKVDNALQSGNSQESVTEQDSKDSTYSLSSTLTLSKADYEKHKVYACEVTHQGLSSPVTKSFNRGEC
notes: mutation in one H chain only; also called He Ab S298_20W; S298W
B14: GpH7-A5/GpH7-B3 variant S298_16H/GpL16-k0 (antibody, human IgG1, kappa)
heavy 1: not shown
heavy 2: not shown
light: DIVMTQSPLSLPVTPGEPASISCQASESLVHSNRNTYLHWYLQKPGQSPQLLIYKVSNRFSGVPDRFSGSGSGTDFTLKISRVEAEDVGVYYCSQNTHVPPTFGQGTKVEIERTVAAPSVFIFPPSDEQLKSGTASVVCLLNNFYPREAKVQWKVDNALQSGNSQESVTEQDSKDSTYSLSSTLTLSKADYEKHKVYACEVTHQGLSSPVTKSFNRGEC
notes: mutation in one H chain only; also called He Ab S298_16H; S298H
B15: GpH7-A5/GpH7-B3 variant S324_19Q/GpL16-k0 (antibody, human IgG1, kappa)
heavy 1: not shown
heavy 2: not shown
light: DIVMTQSPLSLPVTPGEPASISCQASESLVHSNRNTYLHWYLQKPGQSPQLLIYKVSNRFSGVPDRFSGSGSGTDFTLKISRVEAEDVGVYYCSQNTHVPPTFGQGTKVEIERTVAAPSVFIFPPSDEQLKSGTASVVCLLNNFYPREAKVQWKVDNALQSGNSQESVTEQDSKDSTYSLSSTLTLSKADYEKHKVYACEVTHQGLSSPVTKSFNRGEC
notes: mutation in one H chain only; also called He Ab S324_19Q; S324Q
B16: GpH7-A5/GpH7-B3 variant S324_02A/GpL16-k0 (antibody, human IgG1, kappa)
heavy 1: not shown
heavy 2: not shown
light: DIVMTQSPLSLPVTPGEPASISCQASESLVHSNRNTYLHWYLQKPGQSPQLLIYKVSNRFSGVPDRFSGSGSGTDFTLKISRVEAEDVGVYYCSQNTHVPPTFGQGTKVEIERTVAAPSVFIFPPSDEQLKSGTASVVCLLNNFYPREAKVQWKVDNALQSGNSQESVTEQDSKDSTYSLSSTLTLSKADYEKHKVYACEVTHQGLSSPVTKSFNRGEC
notes: mutation in one H chain only; also called He Ab S324_02A; S324A

Biological target: T1, FcγRIa extracellular domain with C-terminal His tag (human, UniProt P12314 16-292)
T1 construct: extracellular domain; also called FcgRI; CD64; not shown: His tag at the C terminus
T1 sequence (P12314 16-292): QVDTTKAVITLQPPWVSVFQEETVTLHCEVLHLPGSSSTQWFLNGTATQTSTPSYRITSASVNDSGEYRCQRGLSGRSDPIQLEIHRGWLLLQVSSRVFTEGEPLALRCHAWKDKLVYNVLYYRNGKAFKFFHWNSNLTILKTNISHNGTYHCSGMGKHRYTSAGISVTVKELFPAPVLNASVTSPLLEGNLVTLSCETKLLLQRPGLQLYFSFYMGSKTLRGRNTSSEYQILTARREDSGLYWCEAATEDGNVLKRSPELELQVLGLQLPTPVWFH
Assay: SPR Biacore, relative FcγRIa binding vs GpH7-A5/GpH7-B3/GpL16-k0

Binder | He/Con_1a
B1 | 107 % of HeCon Ab (=100)
B2 | 121 % of HeCon Ab (=100)
B3 | 104 % of HeCon Ab (=100)
B4 | 102 % of HeCon Ab (=100)
B5 | 102 % of HeCon Ab (=100)
B6 | 114 % of HeCon Ab (=100)
B7 | 103 % of HeCon Ab (=100)
B8 | 114 % of HeCon Ab (=100)
B9 | 109 % of HeCon Ab (=100)
B10 | 108 % of HeCon Ab (=100)
B11 | 116 % of HeCon Ab (=100)
B12 | 113 % of HeCon Ab (=100)
B13 | 104 % of HeCon Ab (=100)
B14 | 109 % of HeCon Ab (=100)
B15 | 112 % of HeCon Ab (=100)
B16 | 103 % of HeCon Ab (=100)
